Target: T1, M1-linked di-Ub (UniProt P0CG48 1-76; P0CG48 1-76)
T1 construct: ubiquitin, distal protomer (its C-terminus joined to M1 of the next); ubiquitin, proximal protomer (free C-terminus); also called M1 di-Ub; linear di-Ub; source: E. coli, purified (acid precipitation, cation exchange, SEC)
Assay: ITC; M1-linked di-Ub and HOIL-1 (WT or I358R), direct binding; who was titrated and the concentrations are not told; 25 °C, 10 mM HEPES pH 7.9, 100 mM NaCl
Settings: both partners purified

Kd: ~50 µM
B1: HOIL-1 helix-RBR (WT) (domain or fragment, human, UniProt Q9BYM8 233-510, looked up)
chain: DEEERARLAGEEEALRQYQQRKQQQQEGNYLQHVQLDQRSLVLNTEPAECPVCYSVLAPGEAVVLRECLHTFCRECLQGTIRNSQEAEVSCPFIDNTYSCSGKLLEREIKALLTPEDYQRFLDLGISIAENRSAFSYHCKTPDCKGWCFFEDDVNEFTCPVCFHVNCLLCKAIHEQMNCKEYQEDLALRAQNDVAARQTTEMLKVMLQQGEAMRCPQCQIVVQKKDGCDWIRCTVCHTEICWVTKGPRWGPGGPGDTSGGCRCRVNGIPCHPSCQNCH
notes: HOIL-1, human, residues 233-510 (N-terminal helix and RBR module); also called WT HOIL-1; HOIL-1 233-510 (helix-RBR); source: E. coli BL21(DE3), purified (Ni-NTA, SEC)

Source: PMC9834252 (Nature Communications, 2023)
